Assay results: patent publication US20230382979A1 (ADAPTIVE BIOTECHNOLOGIES, published 2023)
Numbering of substitutions follows the chain as printed.

B1: antibody 980 (antibody, V domains shown)
VH: QVQLVESGGGVVQPGRSLRLSCAASGFTFSRYGMHWVRQAPGKGLEWVALISSGGSNKYYADSVKGRFTISRDNSKNTLYLEMNSLRAEDTAVYYCAKDAIYDYIWGAYRENWFDPWGQGTLVTVSS
VL: DIQMTQSPSSLSASVGDRVTITCRASQSISNYLNWYQQKPGKAPNLLIYAASSLQSGVPSRFSGSGSGTDFTLTISSLQPEDFATYYCQQTSSPPLTFGQGTKVEIK
B2: antibody 3995 (antibody, V domains shown)
VH: EVQLVQSGAEVKKPGSSVKVSCKASGGTFSMHTIRWVRQAPGQGLEWMGRIIPMLGIVNYAQKFQGRVTISADKSTSTAYMELSSLTSEDTAMYYCAKGSHDVFDIWGQGTMVTVSS
VL: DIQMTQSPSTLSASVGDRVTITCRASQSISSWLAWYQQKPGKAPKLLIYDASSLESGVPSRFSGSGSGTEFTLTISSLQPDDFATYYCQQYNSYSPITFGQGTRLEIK
B3: antibody 1238 (antibody, V domains shown)
VH: QVQLVQSGSELKKPGASVKVSCKASGYTFTNYGMNWVRQAPGQGLEWMGWINTNTGNPTNAQGFTGRFVFSLDTSVSTAYLQINSLKGEDTAVYYCARVADTGEMDVWGQGTTVTVSS
VL: SYELTQPPSVSVSPGQTARITCSGDALPKQYAYWYQQKPGQAPVLVIYKDSERPSGIPERFSGSSSGTTVTLTISGVQAEDEADYYCQSADSSGSYNWVFGGGTKLTIL
B4: antibody 2019 (antibody, V domains shown)
VH: QVQLVESGGGVVQPGGSLSLSCAASGLSFSSYGMHWVRQAPGKGLEWVAFIRYDVSNKYYADSVKGRFTISRDNSKNTLYLQMNSLRVEDTAVYYCATWAPLDDGMDVWGQGTTVTVSS
VL: B3 VL with S51T, A90G, S95T, Y96F, N97Y, W98V, I108V
B5: antibody 1871 (antibody, V domains shown)
VH: EVQLVESGGGLVKPGGSLRLSCVASGFSFSIYSMNWVRQAPGKGLEWVSYISSSSSYKYYADSVKGRFSVSRDNAKNSLYLQLNGLRAEDTAVYYCARDGYCPKGVCTYYGMDVWGQGTTVTVSA
VL: EIVMTQSPATLSVSPGERVTLSCRASQSVRSRLAWFQQKPGQAPRLLIYDASIRATGIPARFSGSGSGTEFTLIISSLQSEDFAVYYCQQYDNWPPAYTFGQGTKLEIK
B6: antibody 1872 (antibody, V domains shown)
VH: B5 VH with V23A, I31L, S33T, K58R, S78A, L83M, K104R
VL: B5 VL with V19A, R30G, F36Y, S52T, E70D, I74T, S77G, Q90R, D92N
B7: antibody 4441 (antibody, V domains shown)
VH: EVQLVESGGGLVQPGRSLRLSCAASGLTFEDYAMHWVRQPPGKGLEWVSGVSWNSGTIGYADSVKGRFTISRDNAKNSLYLHMRSLGAEDTAMYYCAKDMGGRFSFFSLENDAFDIWGQGTMVIVSS
VL: SYELTQPPSVSVSPGQTARITCSGDALPKQSTYWYQQKPGQAPVLVIYKDIERPSGIPERFSGSSSGTTVTLTISGVQAEDEADYYCQSADSSDTYVFGTGTKVTVL
B8: antibody 3091 (antibody, V domains shown)
VH: QMQLVQSGPEVKKPGTSVKVSCKASGFTFSSSAVQWVRQARGQGLEWIGWIVVGSGNANYAQKLQERVSITRDMSTSTAYMELSSLRPEDTAVYYCAAPHCSRTICHDGFDMWGQGTMVTVSS
VL: EIVLTQSPGTLSLSPGERATLSCRASQSVRSSYLAWYQQKPGQAPRLLMFVASSRATGIPDRFSGSGSGTDFTLTISRLEPEDFAVYYCQQYDTSPWTFGQGTKVEIK
B9: antibody 3086 (antibody, V domains shown)
VH: QVQLQESGPGLVKPSETLSLTCTVSGGSISGHYWSWIRQPPGKGLEWIGYIYYSGSTNYNPSLKSRVTISVDTSVNQFSLKLSSVTAADTAVYYCARQEARDAVGNYFFDSWGQGTLVTVSS
VL: QSALTQPASVSGSPGQSITISCSGTSSDIGSYDLVSWYQQHPGKAPKLLIYDVTKRPSGVSHRFSGSKSGNTASLTISGLQGEDEADYYCCSYVHFSTWVFGGGTKLTVL
B10: antibody 4042 (antibody, V domains shown)
VH: QITLKESGPTLVKPTQTLTLTCTFSGFSLSSGGVGVGWIRQPPGKALEWLALIYWDDDKRYRPSLKSRLTITRDTSTNQVVLTMTNMDPVDTATYFCARHQIATVFDHWGQGTLVTVSS
VL: QSALTQPASVSGSPGQSITISCTGTSSDVGGYNYVSWYQQHPGKAPKLMIYEVSNRPSGVSSRFSGSKSGNTASLTISGLQAEDEADYYCSSYTRSSPLVAFGGGTKVTVL
B11: antibody 2564 (antibody, V domains shown)
VH: QVQLVQSGAEVKKPGSSVRVSCKASGGTFISYTFNWVRQAPGQGLEWMGRIIPIFGIVNYAQKFQGRVTIAADKSTSTAYMELSSLRSEDTAMYYCATATVDYDSGEEQSSFDPWGQGTLVTVSS
VL: EIVLTQSPGTLSLSPGERATLSCRASQSVSSSYLAWYQQKAGQTPRLLIYAASSRATGVPDRFSGSGSGTDFTLTISRLEAEDFAVYYCQQSWTFGQGTKVEIK
B12: antibody 2024 (antibody, V domains shown)
VH: QVQLVQSGAEVKKPGASVKVSCKVSGYTLIELSMHWVRQAPGKGLEWMGGFDPEEGETIYAQKFQGRVTMTEDTSTDTAYMELSSLRSEDTAVYYCTTSPPVGATGAWFDPWGQGTLVTVSA
VL: SYVLTQPPSVSVAPGKTARITCGGNNIGSKSVHWYQQKPGQAPVLVVYDDSDRPSGIPERFSGSNSGNTATLTISGLQAEDEADYYCSSYTSSSTVVFGGGTKLTVL
B13: antibody 2794 (antibody, V domains shown)
VH: QVQLVQSGAEVKKPGSSLKVSCKASGGTFNNFAISWVRQAPGQGPEWMGRINPILSAAKYAQKFQGRLTITADKSTTTAYMELSSLRSEDTAVYYCAPTGTGESWWFDPWGQGTLVTVSS
VL: QSVLTQPPSASGTPGQRVTISCSGSSSNIGTNYVYWYQQLPGTAPKVLIYGNNQRPSGVPDRFSGSKSGSSASLAISGLRSEDEADYYCAAWDDSLSGPVFGGGTKLTVL
B14: antibody 2892 (antibody, V domains shown)
VH: QVQLVQSGAEVKKPGSSVKVSCKASGDAFISYAISWVRQAPGQGLEWMGGIIPIFGTANYAQKFQGRVTISADESTSTAYMELSRLRSEDTAVYYCARGGPEPYGSGSGYTPRYNWFDPWGQGTLVTVSS
VL: QSALTQPRSVSGSPGQSVTISCTGTSSDVGGYNYVSWYQQHPGKAPKFMIYDVNRRPSGVPDRFSGSKSGNTASLTISGLQAEDEADYYCCSYAGTYTWVFGGGTKLTVL

Tests used:
[1] = biological target: T1, SARS-CoV-2 spike protein on live virus, strain USA-WA1/2020 (SARS-CoV-2, WA01/2020 strain, UniProt P0DTC2 14-1273); experiment: cell-based or functional assay
[2] = biological target: T2, Receptor-binding domain (RBD) of the SARS-CoV-2 spike protein, WA01/2020 strain (SARS-CoV-2, WA01/2020 strain, UniProt P0DTC2 319-541); experiment: dose-response ELISA on coated antigen
[3] = biological target: T1, SARS-CoV-2 spike protein on live virus, …; experiment: cell-based or functional assay; remark: listed apart in the source
[4] = biological target: SARS-CoV-2 spike protein on live virus, B1.351 (beta variant) (SARS-CoV-2, B1.351); experiment: cell-based or functional assay
[5] = biological target: T2, Receptor-binding domain (RBD) of the …; experiment: SPR (Biacore 8K), antigen immobilized, antibody injected
[6] = biological target: T2, Receptor-binding domain (RBD) of the …; experiment: ELISA, antibody blocks RBD binding to human ACE2
[7] = biological target: SARS-CoV-2 spike protein, B1.1.7 (alpha variant), borne on lentiviral pseudovirus (SARS-CoV-2, B1.1.7); experiment: cell-based or functional assay
[8] = biological target: SARS-CoV-2 spike protein, B1.351 (beta variant), borne on lentiviral pseudovirus (SARS-CoV-2, B1.351); experiment: cell-based or functional assay
[9] = biological target: T2, Receptor-binding domain (RBD) of the …; experiment: ELISA, antibody at 0.1 ug/mL
[10] = biological target: T2, Receptor-binding domain (RBD) of the …; experiment: ELISA screening, antibody concentration not given

Binder	IC50, live virus micro-neutralization WA1/2020 [1] [nM]	EC50 [2] [nM]	Live Neut, WA1/2020 IC50 (pM) [3] [pM]	Live Neut, B1.351 IC50 (pM) [4] [pM]	Kd [5] [nM]	IC50 [6] [nM]	Pseudo Neut, B1.1.7 IC50 (pM) [7] [pM]	Pseudo Neut, B1.351 IC50 (pM) [8] [pM]	binding result [9]	binding result [10]
B1	0.0082	0.023	25	83	0.87	0.86	1670	1740		
B2	0.041	0.021	51	135	0.057	0.692	667	2830		
B3			400						no binding (tested: 0.1 ug/mL)	
B4			107						no binding (tested: 0.1 ug/mL)	
B5							110	208		no binding (tested: not printed)
B6							130	75		no binding (tested: not printed)
B7	0.058	0.05	85		0.022	1.02	~13	2320		
B8	0.055	0.03	8	172	0.004	0.56	~13	78		
B9	0.062	0.03	7	210	0.242	0.562	71	115		
B10	0.039	0.021	15	140	0.036	1.09	200	948		
B11	0.0226	0.023	7	121	0.012	0.776	33	196		
B12			95						no binding (tested: 0.1 ug/mL)	
B13	0.055	0.022	17		0.232	0.137	148	428		
B14	0.082	0.089	10	403	0.005	0.762	~13	125		
